Results: publication PMC9482650, “Quantitative fragmentomics allow affinity mapping of interactomes” (Nature Communications, 2022)

T1: DLG3_3, Q92796
T1 sequence (Q92796 374-475, limits assumed, looked up): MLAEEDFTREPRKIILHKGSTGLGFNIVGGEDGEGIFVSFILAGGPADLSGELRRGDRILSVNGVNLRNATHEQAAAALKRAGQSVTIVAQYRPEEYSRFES

T2: GRIP1_4, Q9Y3R0
T2 sequence (Q9Y3R0 467-571, limits assumed, looked up): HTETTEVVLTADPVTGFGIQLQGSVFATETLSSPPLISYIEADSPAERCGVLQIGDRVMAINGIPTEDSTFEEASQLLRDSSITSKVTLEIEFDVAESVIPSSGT

T3: LIN7C, Q9NUP9
T3 sequence (Q9NUP9 88-185, limits assumed, looked up): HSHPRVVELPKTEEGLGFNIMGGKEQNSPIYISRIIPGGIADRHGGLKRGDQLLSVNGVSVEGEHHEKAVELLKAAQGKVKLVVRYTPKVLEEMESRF

T4: MPDZ_12, O75970
T4 sequence (O75970 1857-1958, limits assumed, looked up): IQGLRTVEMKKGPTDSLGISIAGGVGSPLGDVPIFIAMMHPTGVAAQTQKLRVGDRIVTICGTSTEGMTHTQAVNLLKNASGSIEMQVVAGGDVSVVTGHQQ

T5: PARD3B_1, Q8TEW8
T5 sequence (Q8TEW8 196-299, limits assumed, looked up): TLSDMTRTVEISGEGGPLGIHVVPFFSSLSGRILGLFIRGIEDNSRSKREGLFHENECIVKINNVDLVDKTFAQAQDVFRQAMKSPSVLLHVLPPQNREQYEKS

T6: RHPN1, Q8TCX5
T6 sequence (Q8TCX5 508-602, limits assumed, looked up): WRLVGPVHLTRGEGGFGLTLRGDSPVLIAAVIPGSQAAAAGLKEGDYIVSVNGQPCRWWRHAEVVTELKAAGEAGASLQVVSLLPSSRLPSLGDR

T7: SHANK1, Q9Y566
T7 sequence (Q9Y566 658-767, limits assumed, looked up): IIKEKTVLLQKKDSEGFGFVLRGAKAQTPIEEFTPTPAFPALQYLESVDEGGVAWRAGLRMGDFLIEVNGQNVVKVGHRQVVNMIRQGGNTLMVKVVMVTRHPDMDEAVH

T8: SIPA1L2, Q9P2F8
T8 sequence (Q9P2F8 945-1036, limits assumed, looked up): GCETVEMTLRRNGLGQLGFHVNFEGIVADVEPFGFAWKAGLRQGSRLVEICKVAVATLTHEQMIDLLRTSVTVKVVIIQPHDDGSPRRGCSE


Columns and labels:
Test in all cases: holdup assay
Design in all cases: key: below the threshold = too weak to quantify, mostly under pKd 3.1 to 4
Conditions in all cases: plain residues with an end cap or a label only (N-terminal biotin on a linker: ado-ado)
[1] = molecular target: ARHGEF12, Q9NZN5-2
Sequence of ARHGEF12, Q9NZN5-2 (Q9NZN5 other isoform, or with tags, fused parts or gaps): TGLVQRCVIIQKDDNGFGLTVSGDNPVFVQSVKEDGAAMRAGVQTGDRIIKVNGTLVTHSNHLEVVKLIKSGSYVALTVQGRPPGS

[2] = molecular target: DLG1_2, Q12959
Sequence of DLG1_2, Q12959 (Q12959 314-412): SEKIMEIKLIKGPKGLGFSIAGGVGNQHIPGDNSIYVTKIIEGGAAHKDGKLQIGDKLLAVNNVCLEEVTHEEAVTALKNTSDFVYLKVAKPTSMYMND

[3] = molecular target: T1, DLG3_3, Q92796
[4] = molecular target: FRMPD2_1, Q68DX3
Sequence of FRMPD2_1, Q68DX3 (Q68DX3 770-861): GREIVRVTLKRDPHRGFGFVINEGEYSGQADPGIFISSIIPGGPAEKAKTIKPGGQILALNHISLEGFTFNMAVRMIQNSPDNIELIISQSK

[5] = molecular target: FRMPD3, Q5JV73
Sequence of FRMPD3, Q5JV73 (Q5JV73 12-100): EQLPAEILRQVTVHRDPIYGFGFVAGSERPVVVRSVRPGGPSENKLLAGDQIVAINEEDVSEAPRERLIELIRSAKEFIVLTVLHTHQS

[6] = molecular target: GORASP1, Q9BQQ3
Sequence of GORASP1, Q9BQQ3 (Q9BQQ3 1-208): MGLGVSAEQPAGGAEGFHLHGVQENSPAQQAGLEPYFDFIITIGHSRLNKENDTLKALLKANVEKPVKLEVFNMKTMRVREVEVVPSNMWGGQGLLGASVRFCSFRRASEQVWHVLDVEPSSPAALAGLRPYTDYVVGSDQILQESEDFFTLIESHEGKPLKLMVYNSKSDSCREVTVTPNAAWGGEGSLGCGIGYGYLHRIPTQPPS

[7] = molecular target: GRID2IP_2, A4D2P6
Sequence of GRID2IP_2, A4D2P6 (A4D2P6 272-370): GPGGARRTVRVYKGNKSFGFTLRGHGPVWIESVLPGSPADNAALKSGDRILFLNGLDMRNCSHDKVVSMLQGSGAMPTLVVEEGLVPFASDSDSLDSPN

[8] = molecular target: T2, GRIP1_4, Q9Y3R0
[9] = molecular target: GRIP2_4, Q9C0E4
Sequence of GRIP2_4, Q9C0E4 (Q9C0E4 446-548): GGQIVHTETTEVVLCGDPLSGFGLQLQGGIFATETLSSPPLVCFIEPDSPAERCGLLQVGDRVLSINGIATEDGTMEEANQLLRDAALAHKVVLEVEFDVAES

[10] = molecular target: HTRA2, O43464
Sequence of HTRA2, O43464 (O43464 355-458): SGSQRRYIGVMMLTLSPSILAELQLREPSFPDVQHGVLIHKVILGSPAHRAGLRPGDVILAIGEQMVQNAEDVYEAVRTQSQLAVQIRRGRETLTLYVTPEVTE

[11] = molecular target: Inadl_1, Q8NI35
Sequence of Inadl_1, Q8NI35 (Q8NI35 113-229): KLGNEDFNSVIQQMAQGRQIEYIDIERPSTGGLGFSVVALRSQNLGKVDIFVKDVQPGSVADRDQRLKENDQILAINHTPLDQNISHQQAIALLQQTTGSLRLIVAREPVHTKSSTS

[12] = molecular target: Inadl_2, Q8NI35
Sequence of Inadl_2, Q8NI35 (Q8NI35 238-335): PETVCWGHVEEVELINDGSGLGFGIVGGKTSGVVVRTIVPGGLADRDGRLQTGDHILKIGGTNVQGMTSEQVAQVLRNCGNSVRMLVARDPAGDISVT

[13] = molecular target: Inadl_6, Q8NI35
Sequence of Inadl_6, Q8NI35 (Q8NI35 1058-1167): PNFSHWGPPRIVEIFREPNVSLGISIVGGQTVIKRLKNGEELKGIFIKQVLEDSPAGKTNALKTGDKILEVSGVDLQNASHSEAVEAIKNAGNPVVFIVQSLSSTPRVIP

[14] = molecular target: LDB3, O75112
Sequence of LDB3, O75112 (O75112 1-94): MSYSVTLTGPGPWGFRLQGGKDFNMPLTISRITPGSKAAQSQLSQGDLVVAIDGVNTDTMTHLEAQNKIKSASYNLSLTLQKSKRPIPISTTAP

[15] = molecular target: T3, LIN7C, Q9NUP9
[16] = molecular target: LNX1_3, Q8TBB1
Sequence of LNX1_3, Q8TBB1 (Q8TBB1 500-596): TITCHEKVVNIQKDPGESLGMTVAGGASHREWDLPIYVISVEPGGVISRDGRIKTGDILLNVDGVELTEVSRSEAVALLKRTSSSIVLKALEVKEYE

[17] = molecular target: MAGI2_2, Q86UL8
Sequence of MAGI2_2, Q86UL8 (Q86UL8 410-522): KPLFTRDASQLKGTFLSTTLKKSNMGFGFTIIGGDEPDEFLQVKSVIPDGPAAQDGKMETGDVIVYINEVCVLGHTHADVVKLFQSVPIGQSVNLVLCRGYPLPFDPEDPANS

[18] = molecular target: MAGI2_6, Q86UL8
Sequence of MAGI2_6, Q86UL8 (Q86UL8 1141-1229): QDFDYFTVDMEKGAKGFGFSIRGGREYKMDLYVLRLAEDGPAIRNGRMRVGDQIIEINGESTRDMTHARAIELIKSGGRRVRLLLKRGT

[19] = molecular target: T4, MPDZ_12, O75970
[20] = molecular target: NHERF2_2, Q15599
Sequence of NHERF2_2, Q15599 (Q15599 142-238): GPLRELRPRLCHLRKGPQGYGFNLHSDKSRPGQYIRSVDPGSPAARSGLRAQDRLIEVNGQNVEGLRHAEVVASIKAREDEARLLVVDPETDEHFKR

[21] = molecular target: NHERF4_1, Q86UT5-2
Sequence of NHERF4_1, Q86UT5-2 (Q86UT5 other isoform, or with tags, fused parts or gaps): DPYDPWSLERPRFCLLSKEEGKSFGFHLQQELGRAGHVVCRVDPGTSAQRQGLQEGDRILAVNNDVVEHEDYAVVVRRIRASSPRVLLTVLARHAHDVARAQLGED

[22] = molecular target: NHERF4_4, Q86UT5
Sequence of NHERF4_4, Q86UT5 (Q86UT5 464-550): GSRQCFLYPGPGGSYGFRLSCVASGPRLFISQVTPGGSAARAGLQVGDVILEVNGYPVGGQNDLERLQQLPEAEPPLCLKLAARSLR

[23] = molecular target: T5, PARD3B_1, Q8TEW8
[24] = molecular target: PTPN3, P26045
Sequence of PTPN3, P26045 (P26045 505-587): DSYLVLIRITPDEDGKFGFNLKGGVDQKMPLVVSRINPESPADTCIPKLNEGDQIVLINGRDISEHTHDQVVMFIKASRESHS

[25] = molecular target: T6, RHPN1, Q8TCX5
[26] = molecular target: SCRIB_3, Q14160
Sequence of SCRIB_3, Q14160 (Q14160 999-1103): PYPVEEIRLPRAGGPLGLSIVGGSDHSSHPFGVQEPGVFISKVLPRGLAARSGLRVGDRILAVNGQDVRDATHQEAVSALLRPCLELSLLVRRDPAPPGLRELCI

[27] = molecular target: T7, SHANK1, Q9Y566
[28] = molecular target: T8, SIPA1L2, Q9P2F8
[29] = molecular target: SNX27, Q96L92

pKd [1]	pKd [2]	pKd [3]	pKd [4]	pKd [5]	pKd [6]	pKd [7]	pKd [8]	pKd [9]	pKd [10]	pKd [11]	pKd [12]	pKd [13]	pKd [14]	pKd [15]	pKd [16]	pKd [17]	pKd [18]	pKd [19]	pKd [20]	Binder	also measured
5.06	3.67	below the threshold	below the threshold	below the threshold	4.08	4.81	below the threshold	below the threshold	below the threshold	below the threshold	below the threshold	4.02	below the threshold	4.12	below the threshold	below the threshold	3.98	below the threshold	4.5	QGLAERISVL [PRKD2, Q9BZL6]	pKd [21]: 4.27; pKd [22]: 3.97; pKd [23]: 4.47; pKd [24]: 4.72; pKd [25]: 4.62; pKd [26]: 4.19; pKd [27]: 4.23; pKd [28]: below the threshold; pKd [29]: 4.78
below the threshold	below the threshold	below the threshold	below the threshold	below the threshold	below the threshold	below the threshold	below the threshold	below the threshold	below the threshold	below the threshold	below the threshold	below the threshold	below the threshold	below the threshold	below the threshold	below the threshold	below the threshold	below the threshold	below the threshold	NHSSSPETTA [TRMT13, Q9NUP7]	pKd [21]: below the threshold; pKd [22]: below the threshold; pKd [23]: below the threshold; pKd [24]: 3.88; pKd [25]: below the threshold; pKd [26]: below the threshold; pKd [27]: below the threshold; pKd [28]: below the threshold; pKd [29]: below the threshold
3.94	4.51	4.54	3.59	3.59	3.54	4.39	3.47	3.55	below the threshold	below the threshold	below the threshold	4.18	below the threshold	4.51	below the threshold	3.76	4.71	below the threshold	3.72	EVEEFPETSV [TRPV3, Q8NET8]	pKd [21]: below the threshold; pKd [22]: below the threshold; pKd [23]: below the threshold; pKd [24]: 4.95; pKd [25]: 4.68; pKd [26]: 5.02; pKd [27]: 3.94; pKd [28]: 3.55; pKd [29]: 5.83
below the threshold	below the threshold	below the threshold	below the threshold	below the threshold	below the threshold	below the threshold	below the threshold	below the threshold	below the threshold	below the threshold	below the threshold	below the threshold	below the threshold	below the threshold	below the threshold	below the threshold	below the threshold	below the threshold	below the threshold	PAPSSGKDYV [CLDN1, O95832]	pKd [21]: 3.62; pKd [22]: below the threshold; pKd [23]: below the threshold; pKd [24]: below the threshold; pKd [25]: below the threshold; pKd [26]: below the threshold; pKd [27]: below the threshold; pKd [28]: below the threshold; pKd [29]: 3.62
3.84	4.07	3.86	below the threshold	below the threshold	3.58	3.63	below the threshold	below the threshold	below the threshold	below the threshold	below the threshold	below the threshold	below the threshold	below the threshold	below the threshold	4.93	below the threshold	below the threshold	3.75	LPHPHSTTRV [NLGN2, Q8NFZ4]	pKd [21]: below the threshold; pKd [22]: below the threshold; pKd [23]: below the threshold; pKd [24]: below the threshold; pKd [25]: 3.83; pKd [26]: below the threshold; pKd [27]: 4.81; pKd [28]: below the threshold; pKd [29]: 5.41
